Here are results for 4 molecules from PMC3005596 (Journal of molecular biology, 2010).

Like-named read-outs stand apart in the source and are kept apart here.

Data set [1] has as its target T1, TRBP (human, UniProt Q15633 1-366).
T1 sequence: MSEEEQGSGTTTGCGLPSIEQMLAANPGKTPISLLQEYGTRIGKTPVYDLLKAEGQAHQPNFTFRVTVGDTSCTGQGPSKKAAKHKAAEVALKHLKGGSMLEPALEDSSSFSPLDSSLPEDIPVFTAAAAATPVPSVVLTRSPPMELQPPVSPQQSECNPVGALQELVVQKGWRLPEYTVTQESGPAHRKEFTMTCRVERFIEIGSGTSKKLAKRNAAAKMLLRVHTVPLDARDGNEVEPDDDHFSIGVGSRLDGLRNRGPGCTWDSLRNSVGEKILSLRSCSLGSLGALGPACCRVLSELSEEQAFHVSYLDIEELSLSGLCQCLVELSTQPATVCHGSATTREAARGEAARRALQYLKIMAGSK
Kind of data set: filter binding.

Data set [2] concerns the target T2, TRBPpm (phospho-mimic) (human, UniProt Q15633 1-366, S142D;S152D;S283D;S286D).
T2 sequence: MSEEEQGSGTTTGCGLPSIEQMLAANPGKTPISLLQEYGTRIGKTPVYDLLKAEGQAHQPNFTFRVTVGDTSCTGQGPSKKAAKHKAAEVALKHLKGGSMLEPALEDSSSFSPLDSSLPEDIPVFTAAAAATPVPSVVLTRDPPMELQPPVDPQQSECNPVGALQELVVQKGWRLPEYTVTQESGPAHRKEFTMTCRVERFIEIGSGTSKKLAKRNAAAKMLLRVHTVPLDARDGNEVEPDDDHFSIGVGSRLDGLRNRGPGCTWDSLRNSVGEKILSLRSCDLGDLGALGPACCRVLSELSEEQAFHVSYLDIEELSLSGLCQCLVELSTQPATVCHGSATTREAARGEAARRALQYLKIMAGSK
The experiment in a line: filter binding.

The next data set deals with Dicer (human, UniProt Q9UPY3 1-1922). The experiment in a line: filter binding.
Dicer, sequence (Q9UPY3 whole entry): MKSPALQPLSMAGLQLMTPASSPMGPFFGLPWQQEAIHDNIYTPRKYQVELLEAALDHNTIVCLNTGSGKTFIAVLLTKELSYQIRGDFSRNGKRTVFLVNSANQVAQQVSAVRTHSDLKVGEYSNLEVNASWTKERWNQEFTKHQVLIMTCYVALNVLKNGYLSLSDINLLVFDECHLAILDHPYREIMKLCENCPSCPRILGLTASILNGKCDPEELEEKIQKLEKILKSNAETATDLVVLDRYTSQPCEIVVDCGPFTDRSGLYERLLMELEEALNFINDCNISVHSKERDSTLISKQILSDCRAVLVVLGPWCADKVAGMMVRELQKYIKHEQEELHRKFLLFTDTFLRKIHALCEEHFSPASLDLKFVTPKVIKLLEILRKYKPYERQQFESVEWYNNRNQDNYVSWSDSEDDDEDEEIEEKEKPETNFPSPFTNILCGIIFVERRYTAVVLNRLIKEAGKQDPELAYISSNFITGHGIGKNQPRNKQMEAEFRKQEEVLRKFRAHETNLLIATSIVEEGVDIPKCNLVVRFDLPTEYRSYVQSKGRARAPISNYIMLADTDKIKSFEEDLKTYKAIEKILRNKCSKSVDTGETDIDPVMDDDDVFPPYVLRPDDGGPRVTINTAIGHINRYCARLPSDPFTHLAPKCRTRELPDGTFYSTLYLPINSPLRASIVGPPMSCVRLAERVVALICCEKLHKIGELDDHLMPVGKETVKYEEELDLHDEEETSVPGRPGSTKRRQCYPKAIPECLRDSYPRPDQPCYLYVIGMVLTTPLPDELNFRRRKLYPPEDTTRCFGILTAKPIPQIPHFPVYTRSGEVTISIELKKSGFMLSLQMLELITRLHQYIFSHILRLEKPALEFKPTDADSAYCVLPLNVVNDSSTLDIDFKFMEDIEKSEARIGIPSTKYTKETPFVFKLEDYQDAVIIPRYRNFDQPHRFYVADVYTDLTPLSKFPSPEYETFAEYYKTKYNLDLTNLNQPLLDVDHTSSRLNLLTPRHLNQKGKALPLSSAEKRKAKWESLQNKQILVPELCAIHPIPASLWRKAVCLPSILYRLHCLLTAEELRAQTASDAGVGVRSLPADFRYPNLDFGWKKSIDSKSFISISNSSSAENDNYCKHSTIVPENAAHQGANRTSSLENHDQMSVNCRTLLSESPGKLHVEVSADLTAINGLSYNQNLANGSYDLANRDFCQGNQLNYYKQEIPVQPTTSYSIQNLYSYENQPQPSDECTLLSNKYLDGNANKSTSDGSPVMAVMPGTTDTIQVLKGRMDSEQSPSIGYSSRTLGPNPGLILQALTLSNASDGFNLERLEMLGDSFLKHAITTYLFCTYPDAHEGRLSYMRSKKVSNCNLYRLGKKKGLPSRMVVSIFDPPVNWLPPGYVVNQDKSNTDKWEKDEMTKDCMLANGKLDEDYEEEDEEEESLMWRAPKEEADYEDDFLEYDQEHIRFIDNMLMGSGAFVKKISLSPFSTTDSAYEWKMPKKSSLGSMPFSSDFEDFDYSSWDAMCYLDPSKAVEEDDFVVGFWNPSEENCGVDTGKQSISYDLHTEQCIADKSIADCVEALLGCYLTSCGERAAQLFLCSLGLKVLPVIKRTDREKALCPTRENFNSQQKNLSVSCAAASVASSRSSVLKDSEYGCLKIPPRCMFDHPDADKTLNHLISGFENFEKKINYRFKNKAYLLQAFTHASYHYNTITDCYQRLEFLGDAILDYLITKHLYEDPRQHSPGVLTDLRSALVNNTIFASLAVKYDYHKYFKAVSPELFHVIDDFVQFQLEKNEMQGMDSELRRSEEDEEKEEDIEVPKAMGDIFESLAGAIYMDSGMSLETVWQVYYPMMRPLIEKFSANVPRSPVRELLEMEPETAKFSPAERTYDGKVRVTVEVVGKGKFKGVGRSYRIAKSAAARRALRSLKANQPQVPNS
The target of the next data set is Dicer;TRBPRBD3 (human;human, UniProt Q9UPY3;Q15633 1-1922;293-366, |). The experiment in a line: filter binding.
Dicer;TRBPRBD3, sequence (Q9UPY3 whole entry, chain 1 of 2, one chain of several): as the sequence (Q9UPY3 whole entry) above
The target in a further data set is Dicer;TRBP (human;human, UniProt Q9UPY3;Q15633 1-1922;1-366, |). The experiment in a line: filter binding.
Dicer;TRBP, sequence (Q9UPY3 whole entry, one chain of several): as the sequence (Q9UPY3 whole entry) above
Another data set addresses human Dicer (human, UniProt Q9UPY3 1-1922). Kind of data set: SEC.
Data set [3] concerns the target T1, TRBP. The experiment in a line: filter binding. The source holds these as a separate data set.
The target in data set [4] is T2, TRBPpm (phospho-mimic). Kind of data set: filter binding. The source holds these as a separate data set.
Data set [5] addresses Dicer;TRBPpm (phospho-mimic) (human;human, UniProt Q9UPY3;Q15633 1-1922;1-366, |S142D;S152D;S283D;S286D). The experiment in a line: filter binding.

human Dicer, sequence (Q9UPY3 whole entry): as above
Dicer;TRBPpm (phospho-mimic), sequence (Q9UPY3 whole entry, chain 1 of 2, one chain of several): as the sequence (Q9UPY3 whole entry) above

B1: 35-bp duplex (pre-siRNA) (dsRNA)
RNA 1: UGAGGUAGUAGGUUGUAUAGUUUGAAAGUUCACGAUU
RNA 2: UCGUGAACUUUCAAACUAUACAACCUACUACCUCAAA
Usually Kd stands for the equilibrium constant for the complex coming apart. Low readings indicate higher affinity, high ones lower affinity. As to B1, the dissociation constant Kd is < 0.09 nM with TRBP [1]; < 0.1 nM with TRBPpm (phospho-mimic) [2]; 3.4 ± 0.5 nM in the data set with Dicer; 3 ± 0.4 nM in the data set with Dicer;TRBPRBD3; < 0.051 nM in the data set with Dicer;TRBP.

B2: HIV trans-activating response (TAR) RNA binding protein (TRBP) (natural protein, human, UniProt Q15633 1-366, looked up)
chain: MSEEEQGSGTTTGCGLPSIEQMLAANPGKTPISLLQEYGTRIGKTPVYDLLKAEGQAHQPNFTFRVTVGDTSCTGQGPSKKAAKHKAAEVALKHLKGGSMLEPALEDSSSFSPLDSSLPEDIPVFTAAAAATPVPSVVLTRSPPMELQPPVSPQQSECNPVGALQELVVQKGWRLPEYTVTQESGPAHRKEFTMTCRVERFIEIGSGTSKKLAKRNAAAKMLLRVHTVPLDARDGNEVEPDDDHFSIGVGSRLDGLRNRGPGCTWDSLRNSVGEKILSLRSCSLGSLGALGPACCRVLSELSEEQAFHVSYLDIEELSLSGLCQCLVELSTQPATVCHGSATTREAARGEAARRALQYLKIMAGSK
Consider B2, for which the binding result in the data set with human Dicer is on record as “binds”.

B3: phospho-mimic mutant of TRBP (TRBPpm) (natural protein, human, UniProt Q15633 1-366, looked up)
chain: MSEEEQGSGTTTGCGLPSIEQMLAANPGKTPISLLQEYGTRIGKTPVYDLLKAEGQAHQPNFTFRVTVGDTSCTGQGPSKKAAKHKAAEVALKHLKGGSMLEPALEDSSSFSPLDSSLPEDIPVFTAAAAATPVPSVVLTRDPPMELQPPVDPQQSECNPVGALQELVVQKGWRLPEYTVTQESGPAHRKEFTMTCRVERFIEIGSGTSKKLAKRNAAAKMLLRVHTVPLDARDGNEVEPDDDHFSIGVGSRLDGLRNRGPGCTWDSLRNSVGEKILSLRSCDLGDLGALGPACCRVLSELSEEQAFHVSYLDIEELSLSGLCQCLVELSTQPATVCHGSATTREAARGEAARRALQYLKIMAGSK
With B3, the binding result with human Dicer is recorded as “binds”.

B4: pre-let-7a (structured_RNA)
RNA: UGAGGUAGUAGGUUGUAUAGUUUUAGGGUCACACCCACCACUGGGAGAUAACUAUACAAUCUACUGUCUUACC
For the molecule B4, the dissociation constant Kd with TRBP [3] was 1.3 ± 0.2 nM; with TRBPpm (phospho-mimic) [4], 2.9 ± 0.6 nM; with Dicer, 1.8 ± 0.4 nM; in the data set with Dicer;TRBPRBD3, 1.3 ± 0.1 nM; in data set [5] it was < 0.04 nM; with Dicer;TRBP, < 0.05 nM.
